Experimental findings from publication PMC9860117, “The nematode α-catenin ortholog, HMP1, has an extended α-helix when bound to actin filaments” (The Journal of Biological Chemistry, 2022) are described below.

Series [1] concerns the molecule itself. As to the kind of experiment: cryo-EM structure; F-actin (0.7 uM) put on the grid first, then 0.6 mg/ml (21 uM) HMP1/α-catenin FABD added and removed repeatedly; helical reconstruction at 3.36 Å.
Series [2] concerns the molecule itself. The series can be described thus: SEC; Superdex S200 10/300 Gl, 20 mM Tris pH 8, 150 mM NaCl, 0.2 mM TCEP; monomer and dimer peaks pooled separately and each run a second time.

B1: HMP1/α-catenin F-actin binding domain (FABD, residues 677-927) (domain or fragment, C. elegans, UniProt P90947 677-927, looked up)
chain: NLMRRLPEEEKKKIQAQIDIFKVTQTRFEREVAKWDETGNDIISLANNMCKIMMSMTEFTRGCGPLKTTMDVIRAAQEISLNGSKLNALARQIGEESADSQTKKDLLAYLSQITLYCQQLNICSKVKADVTQVGNELVVSALDSAMSLIQTARNLLTAVVQTVKAAYIASTKFRRPNANSVRVEWRMAPPKKQPLIRPQKNNAIIRRASERRPLQPAKVLAEFTRNEIETGRDSDDEELDRRHQQRINGRL
notes: Cloned into pGEX-6P-1 with a PreScission site by DNA Custom Cloning; also called HMP1/α-catenin FABD; FABD of HMP1/α-catenin; source: E. coli BL21(DE3), purified as described for full-length HMP1/α-catenin; not shown: GST, N-terminal, cleaved
For the protein B1, the binding result in series [1] is given as “binds”.

B2: full-length human α-catenin (residues 1-906) (natural protein, UniProt P35221 1-906, looked up)
chain: MTAVHAGNINFKWDPKSLEIRTLAVERLLEPLVTQVTTLVNTNSKGPSNKKRGRSKKAHVLAASVEQATENFLEKGDKIAKESQFLKEELVAAVEDVRKQGDLMKAAAGEFADDPCSSVKRGNMVRAARALLSAVTRLLILADMADVYKLLVQLKVVEDGILKLRNAGNEQDLGIQYKALKPEVDKLNIMAAKRQQELKDVGHRDQMAAARGILQKNVPILYTASQACLQHPDVAAYKANRDLIYKQLQQAVTGISNAAQATASDDASQHQGGGGGELAYALNNFDKQIIVDPLSFSEERFRPSLEERLESIISGAALMADSSCTRDDRRERIVAECNAVRQALQDLLSEYMGNAGRKERSDALNSAIDKMTKKTRDLRRQLRKAVMDHVSDSFLETNVPLLVLIEAAKNGNEKEVKEYAQVFREHANKLIEVANLACSISNNEEGVKLVRMSASQLEALCPQVINAALALAAKPQSKLAQENMDLFKEQWEKQVRVLTDAVDDITSIDDFLAVSENHILEDVNKCVIALQEKDVDGLDRTAGAIRGRAARVIHVVTSEMDNYEPGVYTEKVLEATKLLSNTVMPRFTEQVEAAVEALSSDPAQPMDENEFIDASRLVYDGIRDIRKAVLMIRTPEELDDSDFETEDFDVRSRTSVQTEDDQLIAGQSARAIMAQLPQEQKAKIAEQVASFQEEKSKLDAEVSKWDDSGNDIIVLAKQMCMIMMEMTDFTRGKGPLKNTSDVISAAKKIAEAGSRMDKLGRTIADHCPDSACKQDLLAYLQRIALYCHQLNICSKVKAEVQNLGGELVVSGVDSAMSLIQAAKNLMNAVVQTVKASYVASTKYQKSQGMASLNLPAVSWKMKAPEKKPLVKREKQDETQTKIKRASQKKHVNPVQALSEFKAMDSI
notes: cDNA from Open Biosystems; One construct that was isolated as a monomer pool and as a dimer pool; the dimer pool holds two copies of the chain; also called full-length monomeric human α-catenin; full-length dimeric human α-catenin; source: E. coli BL21(DE3), purified similar to HMP1/α-catenin; monomer and dimer SEC peaks pooled separately and run again on Superdex S200; not shown: GST, …
B2: in series [2], the “stoichiometry N” value was 2.

The term stoichiometry N denotes a count of units in the complex or per binding partner.
